Experimental data from the supplement of paper PMC9112550, “Optimization of the antimicrobial peptide Bac7 by deep mutational scanning” (BMC Biology, 2022).

Tested on: Escherichia coli TOP10
Assay: shrunken log2 fold change of peptide-encoding DNA abundance (4.5 h post-induction vs induction); higher = less antimicrobial activity (less host growth inhibition)
Details: time post-induction: 4.5 h; library: site-saturation at positions 5, 18, 19, 20
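Further: peptides expressed intracellularly from a pBAD plasmid library in pooled LB shake-flask culture, induced with 0.3% L-arabinose, DNA abundance read by NGS, three biological replicates, DESeq2 with apeglm shrinkage.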

In order of falling “shrunken log2 fold change” value:
1. RRIRFRPPRLPRPRPRPRDCPRP  2.96
2. RRIRWRPPRLPRPRPRPEVAPRP  1.25
3. RRIRKRPPRLPRPRPRPLGFPRP  0.872
4. RRIRKRPPRLPRPRPRPECSPRP  0.854
5. RRIRGRPPRLPRPRPRPKQNPRP  0.853
6. RRIRARPPRLPRPRPRPPMLPRP  0.805
7. RRIRSRPPRLPRPRPRPTAGPRP  0.679
8. RRIRWRPPRLPRPRPRPEFMPRP  0.635
9. RRIRKRPPRLPRPRPRPFWWPRP  0.592
10. RRIRRRPPRLPRPRPRPVCTPRP  0.575
11. RRIRPRPPRLPRPRPRPHWWPRP  0.507
12. RRIRMRPPRLPRPRPRPSFDPRP  0.485
13. RRIRGRPPRLPRPRPRPPKWPRP  0.469
14. RRIRKRPPRLPRPRPRPPMAPRP  0.41
15. RRIRMRPPRLPRPRPRPVGFPRP  0.405
16. RRIRARPPRLPRPRPRPMVCPRP  0.396
17. RRIRWRPPRLPRPRPRPTWDPRP  0.395
18. RRIRFRPPRLPRPRPRPRPCPRP  0.386
19. RRIRDRPPRLPRPRPRPKMAPRP  0.38
20. RRIRGRPPRLPRPRPRPQWGPRP  0.376
21. RRIRPRPPRLPRPRPRPLCFPRP  0.354
22. RRIRFRPPRLPRPRPRPGLAPRP  0.344
23. RRIRKRPPRLPRPRPRPSLGPRP  0.343
24. RRIRGRPPRLPRPRPRPQIHPRP  0.32
25. RRIRWRPPRLPRPRPRPKTHPRP  0.293
26. RRIRRRPPRLPRPRPRPGIHPRP  0.252
27. RRIRRRPPRLPRPRPRPAQSPRP  0.247
28. RRIRVRPPRLPRPRPRPETKPRP  0.242
29. RRIRARPPRLPRPRPRPMAEPRP  0.238
30. RRIRLRPPRLPRPRPRPMWCPRP  0.214
31. RRIRLRPPRLPRPRPRPPRFPRP  0.209
32. RRIRPRPPRLPRPRPRPAMNPRP  0.193
33. RRIRGRPPRLPRPRPRPRLIPRP  0.166
34. RRIRGRPPRLPRPRPRPWMDPRP  0.166
35. RRIRSRPPRLPRPRPRPEIDPRP  0.166
36. RRIRTRPPRLPRPRPRPMTAPRP  0.154
37. RRIRLRPPRLPRPRPRPAWKPRP  0.151
38. RRIRTRPPRLPRPRPRPTWQPRP  0.149
39. RRIRFRPPRLPRPRPRPKTTPRP  0.142
40. RRIRRRPPRLPRPRPRPAKQPRP  0.136
41. RRIRLRPPRLPRPRPRPRFVPRP  0.123
42. RRIRKRPPRLPRPRPRPMAIPRP  0.116
43. RRIRRRPPRLPRPRPRPQQAPRP  0.115
44. RRIRTRPPRLPRPRPRPLVRPRP  0.114
45. RRIRYRPPRLPRPRPRPRGVPRP  0.0913
46. RRIRNRPPRLPRPRPRPVAQPRP  0.089
47. RRIRRRPPRLPRPRPRPQNEPRP  0.0801
48. RRIRIRPPRLPRPRPRPPTTPRP  0.0744
49. RRIRFRPPRLPRPRPRPYQYPRP  0.0631
50. RRIRHRPPRLPRPRPRPGLWPRP  0.0565
51. RRIRFRPPRLPRPRPRPEFYPRP  0.0551
52. RRIRYRPPRLPRPRPRPFSNPRP  0.0549
53. RRIRVRPPRLPRPRPRPKAWPRP  0.0531
54. RRIRRRPPRLPRPRPRPTWFPRP  0.0478
55. RRIRMRPPRLPRPRPRPQVAPRP  0.0435
56. RRIRSRPPRLPRPRPRPAEQPRP  0.0415
57. RRIRMRPPRLPRPRPRPIWGPRP  0.0405
58. RRIRGRPPRLPRPRPRPFQMPRP  0.0308
59. RRIRNRPPRLPRPRPRPINDPRP  0.0259
60. RRIRCRPPRLPRPRPRPPCQPRP  0.0248
61. RRIRYRPPRLPRPRPRPRNSPRP  0.022
62. RRIRLRPPRLPRPRPRPAMQPRP  0.0214
63. RRIRQRPPRLPRPRPRPQDMPRP  0.0179
64. RRIRVRPPRLPRPRPRPTGHPRP  0.0149
65. RRIRERPPRLPRPRPRPQMRPRP  0.0123
66. RRIRTRPPRLPRPRPRPKVKPRP  0.00985
67. RRIRWRPPRLPRPRPRPIIAPRP  0.00853
68. RRIRKRPPRLPRPRPRPHDLPRP  0.00698
69. RRIRRRPPRLPRPRPRPMDCPRP  0.00462
70. RRIRKRPPRLPRPRPRPWTMPRP  0.00233
71. RRIRPRPPRLPRPRPRPNCRPRP  -0.000174
72. RRIRFRPPRLPRPRPRPDKEPRP  -0.0026
73. RRIRNRPPRLPRPRPRPPCFPRP  -0.00581
74. RRIRTRPPRLPRPRPRPMPFPRP  -0.00604
75. RRIRIRPPRLPRPRPRPDNLPRP  -0.00843
76. RRIRKRPPRLPRPRPRPWEIPRP  -0.00947
77. RRIRWRPPRLPRPRPRPGYDPRP  -0.0098
78. RRIRDRPPRLPRPRPRPIKCPRP  -0.0161
79. RRIRQRPPRLPRPRPRPGHFPRP  -0.0162
80. RRIRDRPPRLPRPRPRPNKQPRP  -0.0169
81. RRIRNRPPRLPRPRPRPGMNPRP  -0.02
82. RRIRARPPRLPRPRPRPWMFPRP  -0.0244
83. RRIRARPPRLPRPRPRPWYEPRP  -0.0297
84. RRIRQRPPRLPRPRPRPHQTPRP  -0.0333
85. RRIRRRPPRLPRPRPRPMGCPRP  -0.0336
86. RRIRERPPRLPRPRPRPVTNPRP  -0.0383
87. RRIRKRPPRLPRPRPRPDQHPRP  -0.0427
88. RRIRLRPPRLPRPRPRPGGRPRP  -0.0451
89. RRIRLRPPRLPRPRPRPYTIPRP  -0.048
90. RRIRIRPPRLPRPRPRPIFEPRP  -0.0533
91. RRIRDRPPRLPRPRPRPGKQPRP  -0.0597
92. RRIRVRPPRLPRPRPRPLETPRP  -0.062
93. RRIRNRPPRLPRPRPRPPWKPRP  -0.0649
94. RRIRNRPPRLPRPRPRPENKPRP  -0.0669
95. RRIRYRPPRLPRPRPRPDAPPRP  -0.0708
96. RRIRTRPPRLPRPRPRPCHMPRP  -0.0872
97. RRIRERPPRLPRPRPRPKDRPRP  -0.094
98. RRIRKRPPRLPRPRPRPSNPPRP  -0.0952
99. RRIRFRPPRLPRPRPRPRCHPRP  -0.0965
100. RRIRRRPPRLPRPRPRPIMIPRP  -0.105
101. RRIRFRPPRLPRPRPRPRNQPRP  -0.114
102. RRIRERPPRLPRPRPRPSEVPRP  -0.12
103. RRIRERPPRLPRPRPRPWCRPRP  -0.126
104. RRIRCRPPRLPRPRPRPYERPRP  -0.133
105. RRIRHRPPRLPRPRPRPWFVPRP  -0.14
106. RRIRTRPPRLPRPRPRPLMCPRP  -0.151
107. RRIRKRPPRLPRPRPRPVPSPRP  -0.156
108. RRIRCRPPRLPRPRPRPRNVPRP  -0.156
109. RRIRERPPRLPRPRPRPLGAPRP  -0.159
110. RRIRFRPPRLPRPRPRPMEFPRP  -0.194
111. RRIRPRPPRLPRPRPRPRNHPRP  -0.196
112. RRIRYRPPRLPRPRPRPAAGPRP  -0.197
113. RRIRSRPPRLPRPRPRPQCVPRP  -0.204
114. RRIRSRPPRLPRPRPRPEKHPRP  -0.211
115. RRIRLRPPRLPRPRPRPNIDPRP  -0.213
116. RRIRFRPPRLPRPRPRPAYYPRP  -0.227
117. RRIRWRPPRLPRPRPRPNLMPRP  -0.227
118. RRIRKRPPRLPRPRPRPSNTPRP  -0.231
119. RRIRARPPRLPRPRPRPYTIPRP  -0.236
120. RRIRLRPPRLPRPRPRPYCPPRP  -0.24
121. RRIRCRPPRLPRPRPRPECKPRP  -0.255
122. RRIRCRPPRLPRPRPRPVDYPRP  -0.258
123. RRIRFRPPRLPRPRPRPHVLPRP  -0.286
124. RRIRCRPPRLPRPRPRPDINPRP  -0.294
125. RRIRYRPPRLPRPRPRPRFKPRP  -0.302
126. RRIRTRPPRLPRPRPRPSYVPRP  -0.305
127. RRIRCRPPRLPRPRPRPPEYPRP  -0.319
128. RRIRIRPPRLPRPRPRPIAYPRP  -0.32
129. RRIRCRPPRLPRPRPRPWCSPRP  -0.321
130. RRIRLRPPRLPRPRPRPIGKPRP  -0.335
131. RRIRERPPRLPRPRPRPFVMPRP  -0.345
132. RRIRFRPPRLPRPRPRPDVPPRP  -0.356
133. RRIRQRPPRLPRPRPRPSDNPRP  -0.394
134. RRIRVRPPRLPRPRPRPSMGPRP  -0.399
135. RRIRCRPPRLPRPRPRPLVIPRP  -0.401
136. RRIRVRPPRLPRPRPRPLIPPRP  -0.406
137. RRIRERPPRLPRPRPRPFPEPRP  -0.426
138. RRIRTRPPRLPRPRPRPSCPPRP  -0.444
139. RRIRERPPRLPRPRPRPHHKPRP  -0.449
140. RRIRCRPPRLPRPRPRPNVLPRP  -0.464
141. RRIRHRPPRLPRPRPRPQYQPRP  -0.496
142. RRIRHRPPRLPRPRPRPTYHPRP  -0.514
143. RRIRCRPPRLPRPRPRPFTAPRP  -0.553
144. RRIRYRPPRLPRPRPRPSIQPRP  -0.594
145. RRIRFRPPRLPRPRPRPLNIPRP  -0.594
146. RRIRSRPPRLPRPRPRPYFSPRP  -0.611
147. RRIRIRPPRLPRPRPRPLMFPRP  -0.617
148. RRIRERPPRLPRPRPRPMNIPRP  -0.847
149. RRIRYRPPRLPRPRPRPPNMPRP  -0.863
150. RRIRYRPPRLPRPRPRPLYCPRP  -0.975
